Results from patent US20240158497A1 (published 2024).

T1: full length (FL) human gp130 over-expressed on HEK293/Stat3-luc/gp130-2X Sort cells (human, UniProt P40189 23-918)
T1 sequence: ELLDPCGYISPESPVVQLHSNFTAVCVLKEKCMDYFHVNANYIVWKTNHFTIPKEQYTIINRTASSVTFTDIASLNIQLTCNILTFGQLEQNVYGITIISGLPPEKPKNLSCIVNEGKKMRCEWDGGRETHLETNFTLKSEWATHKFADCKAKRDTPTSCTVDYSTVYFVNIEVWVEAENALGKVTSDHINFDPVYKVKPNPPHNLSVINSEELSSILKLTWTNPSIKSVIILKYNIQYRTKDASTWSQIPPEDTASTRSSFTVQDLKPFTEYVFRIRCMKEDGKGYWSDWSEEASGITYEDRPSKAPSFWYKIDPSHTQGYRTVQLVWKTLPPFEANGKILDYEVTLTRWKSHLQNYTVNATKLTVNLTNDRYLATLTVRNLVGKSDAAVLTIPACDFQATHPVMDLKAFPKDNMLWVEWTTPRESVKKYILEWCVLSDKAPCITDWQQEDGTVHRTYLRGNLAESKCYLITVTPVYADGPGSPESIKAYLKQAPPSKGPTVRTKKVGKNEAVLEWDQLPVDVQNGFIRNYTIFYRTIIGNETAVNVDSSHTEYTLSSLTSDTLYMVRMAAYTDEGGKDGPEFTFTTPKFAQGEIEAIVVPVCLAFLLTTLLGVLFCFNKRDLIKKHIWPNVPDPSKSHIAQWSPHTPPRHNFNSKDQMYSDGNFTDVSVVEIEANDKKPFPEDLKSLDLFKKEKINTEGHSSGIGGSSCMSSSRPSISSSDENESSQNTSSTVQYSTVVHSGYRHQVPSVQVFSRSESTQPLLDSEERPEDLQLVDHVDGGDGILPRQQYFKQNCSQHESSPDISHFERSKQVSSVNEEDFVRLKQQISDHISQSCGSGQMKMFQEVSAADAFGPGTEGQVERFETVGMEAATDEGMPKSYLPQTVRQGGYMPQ

T2: human gp130 expressed endogenously on IMR-32/Stat3-luc cells (human, UniProt P40189 23-918)
T2 construct: Endogenous gp130 of the human neuroblastoma line IMR-32
T2 sequence: T1 sequence

B1: MAb16682 (antibody, V domains shown)
VH: EVQLVESGGGLVQPGGSLRLSCAASGFTFSTYWMNWVRQAPGKGLEWVANIKEDGSEKYYVDSVKGRFTISRDNAKNSLYLQMNSLRAEDTAVYYCAREGFGVVTYIWGQGTMVTVSS
VL: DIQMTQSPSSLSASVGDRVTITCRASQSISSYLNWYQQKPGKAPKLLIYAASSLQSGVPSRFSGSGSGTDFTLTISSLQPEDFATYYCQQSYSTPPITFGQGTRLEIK
notes: hIgG4 isotype control used
B2: MAb16618 (antibody, V domains shown)
VH: QVQLQESGPGLVKPSETLSLTCTVSGGSISNYYWTWIRQPPGKGLEWIGHISNSGTTNYNPSLKSRVTISVDTSKNQFSLKLTSVTAADTAVYYCARLPLGIAAVDTDYYYYFGMDVWGQGTTVTVSS
VL: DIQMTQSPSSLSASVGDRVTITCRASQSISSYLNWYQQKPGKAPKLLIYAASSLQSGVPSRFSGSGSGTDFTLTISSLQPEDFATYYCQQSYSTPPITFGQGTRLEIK
notes: hIgG4 isotype control used
B3: MAb16623 (antibody, V domains shown)
VH: EVQLVESGGGLVQPGGSLRLSCAASGLTFSSYEMNWVRQAPGKGLEWVSHISSAGSTKYYADSVKGRFTISRDNAKNSLFLQMNSLRAEDTAIYYCAGYNYAYYYFGVDVWGQGTTVTVSS
VL: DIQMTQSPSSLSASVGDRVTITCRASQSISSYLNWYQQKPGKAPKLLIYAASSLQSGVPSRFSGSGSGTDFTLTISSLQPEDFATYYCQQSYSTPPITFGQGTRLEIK
notes: hIgG4 isotype control used
B4: MAb16636 (antibody, V domains shown)
VH: QLQLQESGPGLVKPSETLSLICTVSGGSISSNNYYWGWIRQPPGKGLEWIGNLYGSGSTYYNPSLKSRVTISVDTSKNQFSLKLSFVTAADTAVYHCARWDTNGGAFDIWGQGTMVTVSS
VL: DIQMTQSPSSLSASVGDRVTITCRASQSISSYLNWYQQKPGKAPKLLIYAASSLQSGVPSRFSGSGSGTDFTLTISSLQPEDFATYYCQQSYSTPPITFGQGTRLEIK
notes: hIgG4 isotype control used
B5: MAb16666 (antibody, V domains shown)
VH: EVQLVESGGGLVQSGGSLRLSCAASGFTFSRYEMNWVRQAPGKGLEWVAYISNTGTTRDYSDSVKGRFTISRDNAKNSLYLQMSSLRVEDTAVYYCVREKFSGTSDWFDPWGQGTLVTVSS
VL: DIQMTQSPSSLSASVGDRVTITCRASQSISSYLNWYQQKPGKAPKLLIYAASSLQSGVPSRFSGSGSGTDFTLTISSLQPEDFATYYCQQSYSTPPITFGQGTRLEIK
notes: hIgG4 isotype control used
B6: MAb16673 (antibody, V domains shown)
VH: EVQLVQSGAEVKKPGESLKISCKGSGYSFTSYWIDWVRQMPGKGLEWMGIIYPDDSDTRYSPSFQGQVTMSVDKSISTAYLQWSSLKASDTAIYYCARHERGIVEAGTDYYYYYGMDVWGQGTTVTVSS
VL: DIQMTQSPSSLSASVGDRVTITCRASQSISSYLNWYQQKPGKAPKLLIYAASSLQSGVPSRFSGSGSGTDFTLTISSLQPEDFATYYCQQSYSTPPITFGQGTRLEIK
notes: hIgG4 isotype control used
B7: MAb16622 (antibody, V domains shown)
VH: EVQLVESGGGVVRPGGSLRLSCTASGFTFDDYGMSWVRQAPGKGLEWVSGINWNGGRTEYADAVKGRFIISRDNAKNSLYLQMNSLRAEDTALYFCARTELRWDYWGQGTLVTVSS
VL: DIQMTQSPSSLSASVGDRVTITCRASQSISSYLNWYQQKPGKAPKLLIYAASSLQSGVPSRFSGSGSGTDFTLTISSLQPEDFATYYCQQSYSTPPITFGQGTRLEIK
notes: hIgG4 isotype control used
B8: MAb16637 (antibody, V domains shown)
VH: QVQLVQSGAEVKKPGASVKVSCKASGYTFTSLGISWVRQAPGQGLEWMGWISAYSGNRDYAQKFQGRVTMTTDTSTSTAYMELRSLRSDDTAVYYCARSLRFDYWGQGTLVTVSS
VL: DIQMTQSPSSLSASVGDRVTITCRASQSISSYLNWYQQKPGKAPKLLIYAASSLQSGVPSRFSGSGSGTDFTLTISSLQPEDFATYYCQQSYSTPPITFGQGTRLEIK
notes: hIgG4 isotype control used
B9: MAb16656 (antibody, V domains shown)
VH: EVQLVESGGGLVQPGRSLRLSCAASGFTLDDFAMHWVRQAPGKGLEWVSGISWNSGNIGYADSVKGRFTISRDNARNSLYLQMNSLRAEDTALYYCTSGYYLYYAMDVWGQGTTVTVSS
VL: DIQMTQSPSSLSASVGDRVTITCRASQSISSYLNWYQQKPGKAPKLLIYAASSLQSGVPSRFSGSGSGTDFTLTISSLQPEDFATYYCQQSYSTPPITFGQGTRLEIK
notes: hIgG4 isotype control used
B10: MAb16659 (antibody, V domains shown)
VH: QVQLVQSGPEVKKPGSSVKVSCKASGGTIDRNEITWVRQAPGQGLEWMGVIIPILGEAHYERKFQGRLTITMDESTSTAYMELSNLRSEDTAVYYCARERAARGYLDYWGQGTLVTVSS
VL: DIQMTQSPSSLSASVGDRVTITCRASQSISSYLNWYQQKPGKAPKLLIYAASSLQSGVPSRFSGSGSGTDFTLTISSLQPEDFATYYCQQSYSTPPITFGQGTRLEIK
notes: hIgG4 isotype control used
B11: MAb16662 (antibody, V domains shown)
VH: EVQLVESGGGLVQPGGSLRLSCTASGFTFSNYAIFWVRQAPGKGLEYVSGISNNGVTKYYADSVRDRFTISRDNSRNTVSIQMDSLRTEDMAVYYCARENWGSDDGFDIWGQGTMVTVSS
VL: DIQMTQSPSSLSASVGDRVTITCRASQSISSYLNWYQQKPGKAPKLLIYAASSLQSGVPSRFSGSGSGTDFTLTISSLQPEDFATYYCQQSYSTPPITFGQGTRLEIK
notes: hIgG4 isotype control used

Biological target: T1, full length (FL) human gp130 …
Test: FACS, 10 nM Ab, HEK293/Stat3-luc/gp130-2X Sort cells
Excerpt: (§1) In order to assess cell binding by anti-GP130 antibodies of the invention two cell lines were generated. One cell line generated was HEK293 cells stably over-expressing full length (FL) human gp130 (amino acids 1-918 of accession #P40189 with leucine at position 2 changed to valine, a natural variant) along with a luciferase reporter (Stat3-luciferase, Stat3-luc, SA Bioscience, #CLS-6028L). The cells were sorted twice using flow cytometry for high expression of gp130. It is known hereafter as HEK293/Stat3-luc/gp130-2 X Sort. IMR-32 cells (human Neuroblastoma, ATCC), were also evaluated for cell binding as these cells express gp130 endogenously and were used for bioassays. The cells used for binding were generated to stably express a luciferase reporter (Stat3-luciferase, Stat3-luc, SA Bioscience, #CLS-6028L), and are referred to hereafter as IMR-32/STAT3-Luc cells.
(§2) For the FACS analysis, 10 nM of the antibodies were used to stain 0.5×10⁶ cells/well of each cell type at 4° C. in PBS (without calcium and magnesium) containing 2% FBS for 30 minutes. IMR-32/STAT3-luc cells were incubated with 1 mg/mL mouse IgG for 30 minutes at 4° C. to block Fc receptors prior to adding the antibodies. To test whether the anti-gp130 antibody binding is specific for gp130 on the IMR-32 cells, antibodies were added to IMR-32/Stat3-luc cells with or without being pre-bound to 1000 nM of recombinant protein of the ecto-domain of human gp130 fused to myc-myc-his tag (hgp130.mmh) for 30 minutes at 25° C. […] Cells were fixed using BD CytoFix™ (Becton Dickinson, #554655) and analyzed on an IQue® (Intellicyt®) Flow Cytometer. Unstained and secondary antibody alone controls were also tested for all cell lines. The results were analyzed using ForeCyt® (IntelliCyt®) software to determine the geometric means of fluorescence for viable cells.

Row | Binder | MFI - Normalized to Unstained Control [ratio]
1 | B1 | 80
2 | B2 | 105
3 | B3 | 96
4 | B4 | 92
5 | B5 | 159
6 | B6 | 107
7 | B7 | 91
8 | B8 | 121
9 | B9 | 132
10 | B10 | 81
11 | B11 | 49

Biological target: T2, human gp130 expressed endogenously on …
Test: FACS, 10 nM Ab, IMR-32/Stat3-luc cells, no hGP130.mmh
Excerpt: as §1, §2

Row | Binder | MFI - Normalized to Unstained Control [ratio]
12 | B1 | 6
13 | B2 | 7
14 | B3 | 8
15 | B4 | 8
16 | B5 | 23
17 | B6 | 10
18 | B7 | 5
19 | B8 | 9
20 | B9 | 12
21 | B10 | 8
22 | B11 | 5

Biological target: T3, human GP130 delta D1 with C-terminal myc-myc hexahistidine tag (human, UniProt P40189 124-619)
T3 construct: used as CHO supernatant; also called human GP130 delta D1-MMH; GP130 Delta D1 extracellular domain
Test: Luminex, antigen captured on anti-myc beads
Description: (§3) Aliquots of microspheres with immobilized anti-myc monoclonal antibodies, prepared as described above, were added individually to 1 mL of the each of these protein supernatants and to 500 uL of purified GP130 protein. The microspheres were gently mixed, incubated for two hours at 25° C., washed twice with 1 mL of DBPS, centrifuged to remove the supernatant and finally resuspended in 1 mL of DPBS buffer. Forty eight μL of anti-myc IgG coupled microspheres from individual reactions with full length human GP130 and with each of the human GP130 domain proteins were withdrawn and mixed together in 3.6 mL of PBS+20 mg/mL BSA+0.05% sodium azide (blocking buffer).
(§4) From this mixed pool, 75 μL of microspheres were plated per well on a 96 well filter plate (Millipore, Cat. No: MSBVN1250) and mixed with 25 μL of individual anti-human GP130 monoclonal antibodies (0.5 or 5 μg/mL), incubated for two hours at 25° C. and then washed twice with 200 μL of DPBS with 0.05% Tween 20 (washing buffer). To detect and quantify the amounts of bound anti-GP130 antibody levels to individual microspheres, either 100 μL of 2.5 μg/mL R-Phycoerythrin conjugated goat F(ab′)2 anti-human kappa (Southern Biotech, Cat #2063-09) in blocking buffer, was added and incubated for 30 minutes at 25° C. After 30 minutes, the samples were washed twice with 200 μL of washing buffer and resuspended in 150 μL of wash buffer. The Median Fluorescence intensity (MFI) of the microspheres was measured in a Luminex Analyzer.

T3 sequence (P40189 other isoform, or with tags, fused parts or gaps mutant limits assumed): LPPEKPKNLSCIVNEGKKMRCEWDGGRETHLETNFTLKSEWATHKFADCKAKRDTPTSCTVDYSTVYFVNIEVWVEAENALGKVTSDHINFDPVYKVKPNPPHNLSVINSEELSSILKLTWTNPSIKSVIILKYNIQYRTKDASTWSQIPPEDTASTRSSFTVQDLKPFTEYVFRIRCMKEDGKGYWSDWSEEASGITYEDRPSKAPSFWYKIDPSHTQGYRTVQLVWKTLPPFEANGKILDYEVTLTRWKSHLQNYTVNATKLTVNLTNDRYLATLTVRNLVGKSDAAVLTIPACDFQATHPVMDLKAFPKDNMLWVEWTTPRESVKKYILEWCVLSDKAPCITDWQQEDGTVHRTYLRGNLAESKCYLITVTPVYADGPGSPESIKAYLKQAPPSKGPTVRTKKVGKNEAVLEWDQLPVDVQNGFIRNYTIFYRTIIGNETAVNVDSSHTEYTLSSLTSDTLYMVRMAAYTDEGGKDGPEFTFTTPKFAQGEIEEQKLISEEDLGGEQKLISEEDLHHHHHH

Row | Binder | Luminex MFI signal [MFI]
23 | B1 | 1380
24 | B2 | 2630
25 | B3 | 12600
26 | B4 | 4260
27 | B5 | 7280
28 | B6 | 2340
29 | B7 | 391
30 | B8 | 342
31 | B9 | 48
32 | B10 | 49
33 | B11 | 3050

Biological target: T4, human GP130 delta D1-D3 with C-terminal myc-myc hexahistidine tag (human, UniProt P40189 329-619)
T4 construct: used as CHO supernatant; also called human GP130 delta D1-D3-MMH; GP130 Delta D1-D3 extracellular domain
Test: Luminex, antigen captured on anti-myc beads
Description: as §3, §4

T4 sequence (P40189 other isoform, or with tags, fused parts or gaps mutant limits assumed): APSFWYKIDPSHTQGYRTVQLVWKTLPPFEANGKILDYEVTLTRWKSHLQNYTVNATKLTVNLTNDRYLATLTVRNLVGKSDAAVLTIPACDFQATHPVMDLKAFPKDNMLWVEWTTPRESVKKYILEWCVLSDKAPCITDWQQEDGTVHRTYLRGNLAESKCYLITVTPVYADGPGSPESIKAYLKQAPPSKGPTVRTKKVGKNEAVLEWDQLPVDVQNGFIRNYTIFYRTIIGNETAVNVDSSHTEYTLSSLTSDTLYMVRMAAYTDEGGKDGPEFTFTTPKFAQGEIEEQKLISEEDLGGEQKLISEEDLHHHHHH

Row | Binder | Luminex MFI signal [MFI]
34 | B1 | 13
35 | B2 | 19
36 | B3 | 16000
37 | B4 | 1070
38 | B5 | 319
39 | B6 | 33
40 | B7 | 20
41 | B8 | 861
42 | B9 | 17
43 | B10 | 22
44 | B11 | 16

Biological target: T5, human GP130 full length extracellular domain with C-terminal myc-myc-hexahistidine tag (human, UniProt P40189 23-619)
T5 construct: Monomeric; also called human GP130-MMH; hGP130-mmH
Test: Luminex, antigen captured on anti-myc beads
Description: as §3, §4

Row | Binder | Luminex MFI signal [MFI]
45 | B1 | 13800
46 | B2 | 19000
47 | B3 | 17600
48 | B4 | 17600
49 | B5 | 16700
50 | B6 | 15100
51 | B7 | 18500
52 | B8 | 16900
53 | B9 | 15900
54 | B10 | 17100
55 | B11 | 13900

Biological target: T2, human gp130 expressed endogenously on …
Test: FACS, 10 nM Ab pre-bound to 1 uM hGP130.mmh, IMR-32/Stat3-luc cells
Excerpt: as §1, §2

Row | Binder | MFI - Normalized to Unstained Control [ratio]
56 | B1 | 8
57 | B2 | 8
58 | B3 | 7
59 | B4 | 7
60 | B5 | 8
61 | B6 | 7
62 | B7 | 7
63 | B8 | 7
64 | B9 | 7
65 | B10 | 8
66 | B11 | 6
